Experimental data: paper PMC5686162, “Non-canonical activation of OmpR drives acid and osmotic stress responses in single bacterial cells” (Nature Communications, 2017)

Tests used:
[1] = molecular target: EnvZc C277Y (S. Typhimurium) (UniProt P08982); assay: SEC; gel filtration profiles of EnvZc, EnvZc C277Y, OmpR, (OmpR + EnvZc) and (OmpR + EnvZc C277Y); Superose 12 10/300 GL for EnvZc, AKTA FPLC, 0.5 ml/min, 'suitable buffers'; fractions analysed by SDS-PAGE
OmpR = OmpR (UniProt P0AA16); assay: SEC; oligomeric state of OmpR alone under acidic conditions; Hiload 16/60 Superdex 75 pg for OmpR; OmpR buffer exchanged into 20 mM Tris, 200 mM NaCl
EnvZc = molecular target: T1, EnvZc ( (S. Typhimurium or E. coli …, UniProt P08982 1-450)); assay: SEC; gel filtration profiles of EnvZc, EnvZc C277Y, OmpR, (OmpR + EnvZc) and (OmpR + EnvZc C277Y); Superose 12 10/300 GL for EnvZc, AKTA FPLC, 0.5 ml/min, 'suitable buffers'; fractions analysed by SDS-PAGE; details: both partners purified
T1 construct: EnvZ sensor histidine kinase, cytoplasmic domain (EnvZc); also called wild-type EnvZc; cytoplasmic domain of EnvZ
T1 sequence: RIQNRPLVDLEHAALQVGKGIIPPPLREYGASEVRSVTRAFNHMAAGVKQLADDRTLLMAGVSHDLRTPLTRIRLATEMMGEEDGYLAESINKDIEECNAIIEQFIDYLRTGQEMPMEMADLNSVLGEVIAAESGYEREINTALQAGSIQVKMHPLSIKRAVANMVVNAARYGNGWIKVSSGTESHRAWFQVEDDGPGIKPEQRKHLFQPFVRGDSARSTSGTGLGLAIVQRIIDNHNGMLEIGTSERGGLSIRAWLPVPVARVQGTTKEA

EnvZc C277Y (from UniProt P08982 1-450) (domain or fragment)
stoichiometry N [1]: 2

OmpR (from UniProt P0AA16 1-239) (natural protein)
stoichiometry N (OmpR): 2

B1: OmpR (natural protein)
chain: MQENYKILVVDDDMRLRALLERYLTEQGFQVRSVANAEQMDRLLTRESFHLMVLDLMLPGEDGLSICRRLRSQSNPMPIIMVTAKGEEVDRIVGLEIGADDYIPKPFNPRELLARIRAVLRRQANELPGAPSQEEAVIAFGKFKLNLGTREMFREDEPMPLTSGEFAVLKALVSHPREPLSRDKLMNLARGREYSAMERSIDVQISRLRRMVEEDPAHPRYIQTVWGLGYVFVPDGSKA
notes: OmpR, response regulator of the EnvZ-OmpR two-component system; The unphosphorylated protein was used in gel filtration; also called His-OmpR; source: E. coli BL21 (DE3), from pET15b, purified
stoichiometry N (EnvZc): 2 OmpR molecules per EnvZc dimer
